Reference: the DeepSol protein solubility set

experiment: soluble on expression in E. coli; label from the status in PepcDB or PDB records

Sequence	soluble on expression in E. coli
MIEIAKIGDDFDRWQDLLALIMTSFAYMDGVIDPPSSAYRLTLENLAEKARAEIAFVALDSDELLGCLFCRPEPPASLYVGKLCVSPKAQGKGIGKLLLLQAEALARELALPALRLETRIELLSNHTKFAAWGFVKTAENAHAGYDRTTSIEMTKFLG	not soluble
MIEKDVVQILKAVSEFYPGRFQPDDLKGTVKAWHRVLAEYELEEIMNNLTDYAKVNKFPPTVSDLLKAQSEQRDRFIPSYEETQRILKEQAEAEEAARNDPDLQAAQEENMRKIREMLGINRGGAR	soluble
MIELEVFPHRYLKAETTEKFLNRAYSLSKVQRVVIHGESLPNKVGYGPAKGTPVNHSEKKEITVKGVPVELMLQVGRLWVLLDDESEIEKIEEICKDLFPFGYRLTKGKFLRNDPTVSDFIKYGESAVDDIDKRLLGATDPRSKFDSSVTIIPKSEKNELEHHHHHH	soluble
MIFYFSGTGNSKWIANQLSKEQQEDLFFIPDAWKNDTWEFSLREDEKIGFVFPVYSWAPPVIVQEFIRKLVLKGYQQQYLFFVCSCGDDTGLTRQVMEKALAARGWRCNAGFSVIMPNNYVLFLGFDVDSKELEKKKLAEAVPALEKVSRLITGRETVFACKEGSLPFIKTRIINPLFVRYQMSPKPFHATSECIGCKRCEKSCPVGNITMKERRPVWGKNCTACLACYHVCPQHAVQYGKKTKGKGHYFNPDSAY	not soluble
MIGSYALSILDEAEVLVDLLTGGAPKVNKIFLITSSRRKRPDYYGELESCLKEMDLNLEIITVDDVSNFFEVYLILEKICELEGTPKWVNVGSGHGIMLSALAVHAFIKDALLVAFDKEEKKVIVTDIKKLKRIKIYQKRYFELISELGEGEKTITELSKIFNLSRSAMSRRLKHMETLNIVVRKGTGRSNIPYVFKLTELGRKLL	soluble
MIHITSQACFLWHTTINKICNRPMFNPLTIRFWGVRGSIPCPGSHTVRYGGNTPCVEIQANGQRIILDGGTGLRVLGEHLMGQQPVTAHLFFTHTHWDHIQGFPFFQPAFVPGNQFHIYAVPGKNGQGIERRLNDQMLHPNFPVPLQIMGGDLRFYDLEVGERVHLGDGVVVSNEALNHPGGGVGYRVSWQGIHVAYITDTEHLPDRLHPGAFALADHADVMIYDATYTDEEYYHPQQSKVGWGHSTWQEAVKLAQAAQVKQLILFHHDPSHDDDCLDRIGELARAQFPQTLLAREGLIISVYPNVIHFPATPQASLEHHHHHH	not soluble
MIHSLFLINCSGDIFLEKHWKSVVSQSVCDYFFEAQEKAADVENVPPVISTPHHYLISIYRDKLFFVSVIQTEVPPLFVIEFLHRVADTFQDYFGECSEAAIKDNVVIVYELLEEMLDNGFPLATESNILKELIKPPTILRSVVNSITGSSNVGDTLPTGQLSNIPWRRAGVKYTNNEAYFDVVEEIDAIIDKSGSTVFAEIQGVIDACIKLSGMPDLSLSFMNPRLLDDVSFHPCIRFKRWESERVLSFIPPDGNFRLISYRVSSQNLVAIPVYVKHSISFKENSSCGRFDITIGPKQNMGKTIEGITVTVHMPKVVLNMNLTPTQGSYTFDPVTKVLTWDVGKITPQKLPSLKGLVNLQSGAPKPEENPSLNIQFKIQQLAISGLKVNRLDMYGEKYKPFKGVKYVTKAGKFQVRT	soluble
MIHVREFQASDSDVVLHLLDLKDIINSSSFSEKVFQLSESGDFLGLVAEANQSGKHQVVGCAFLRLLETISRGLHCQIEELAIDKAWLHQGVGKSLMETATSWAKERGVGDIYVDSPYASIAVKEGIDSVFVRDEVLEVAQQYEAEKEELQESLKKQYNTTISKLEKEYEAKKQQQDETIHNLQTQLEDATQYLEEQQAEENELLNIDPSSPRNHTGPYPRGRGFWGTLCFPIRKTCGPGSCLRLPSGPASVRGSTDRSN	soluble
MIIGIDVGGTNTDAAIVSDEIKTIKLPNEAGIGGILKEISKEANLIEEKVVVSTSWPLNLIISKFSESRTLSLVIPGPGLNYSEYGEVLKGYVNHRGDVVEDIDEYEIAAIFRENSYDNVAISSKFSVRNGSLEDRVAEIVRNYVEDYRIALSHYAGGMNYPARIHTTVVNAKIRETVYRLTELIKAYAGDFYYFKGDGGIVPYTIALNNPSELYNSSPAAVALGAVYLTGEKNALVVDIGGTSTDFVEVIDGMPKIVEGIELAGRKTLIRCVDSVSIPFGGDSVVENGKLVPVCSKPIAFGGESFTLTDALNCAGYEIGDYRSSRKYECDVEKALNQFVSLAATTVREIGCKKIVGTGYLAPYLIPEVAKAAGVEYVIPDHYESANAVGVAVSRVSLTLYVRIDTEKCFAAYNGHTESCPFKPGSLPDDEQILEVAKEKVVEVAKKFGASEEELGKVRTVYFNSFTVVRGGMKRGVIADVIVQIEPGIRYGGLAAALEHHHHHH	not soluble
MIIIQLNERQLKIIDIVKENEPITSESIASSLNVTRATLRSDLAILTMTGILDARPKVGYFYSGVSEINLIGKSVKEKTVEDIMSMPVLAKKDESIYDVIVTMFLSDVGSIVIIDENEELCGVVSRKDLLKATIGGSDINKMPIGMIMTRTPNVVTLTKGASVLLASRKIIEHEVDSIPIVEYKGEDKNHMRVVGRISKTNITKLFLEIVDN	not soluble
MIIKIGTDRFWVKASNIERWAEILKSLPKKIPCSSKKDIARDYLGYKVDESGRIVNADEVYGLFGAEKDKDSLTIVGCNFIKEIEGGYELTEGAIELVERFKHNEEWEKVLGSQLLKYSIRIRTIAYAMLNGGYLYFEKGYMENFAKAYITLNDKKFYVFSSKPDEMNINSLMKENQSKILGDFWRKELDIGDGEEIEFRGVNKDYPSLGSMSTYLKIPMLLFDYLGWIVESEDGRYVLDKHKIKEDAGIDVYESLVNEADVDDIEILHKLIKEYSDARGFFPIGIVGSILKKKIDSENSMAEEQWIDHYFVTGINKGKFIIKDHEQGQPRHGRGLLGKKDYQLIKLEIRD	not soluble
MIIQCQVKSVQPLATHTYQILLQPEHAVAYQAGQYLMVVMGEKDKRPFSLASSPCRSNGELELHIGAADHSAFAHQVVEKFQQAHLNQTWVEVDVPHGNAALQESERPLLLIAGGTGFSYVRSILDHCLSQGKTQPIYLYWGARDAAQLYALNELQELAKQHAHLQVVPVVEQAQDDWAGKVGNVLQAINNDFASLEAFDIYIAGRFEMAGAAREQFTQNKQARRDRMFADAYAFI	not soluble
MIIYKDIFSNDELLSDAYDAKLVDDVIYEADCAMVNVGGDNIDIGANPSAEGGDDDVEEGAEMVNNVVHSFRLQQTAFDKKSFLTYIKGYMKAVKAKLQETNPEEVPKFEKGAQTYVKKVIGSFKDWEFFTGESMDPDAMVVMLNYREDGTTPFVAIWKHGIVEEKI	soluble
MIKIGVITMALLSFLNAGWFSLLFGSNPDPISIPIDLSQAGSVVEREVKIEETWAYDLFLEFAVLDRKEDGGLDGKKVRKFLGFNSYNPYDGKKLGFGDYEQAKRKLGDLIDETYDCDGTIAPIKLTIHQINKDNTKKLIVDNLYMTKGYSSGAYERDIAIISLDKGKYIFRIENIEAFQEMNARKVNFIIRIHKRDK	not soluble
MIKKCLFPAAGYGTRFLPITKTIPKEMLPIVDKPLIQYAVEEAMEAGCEVMAIVTGRNKRSLEDYFDTSYEIEHQIQGTNKENALKSIRNIIEKCCFSYVRQKQMKGLGHAILTGEALIGNEPFAVILADDLCISHDHPSVLKQMTSLYQKYQCSIVAIEEVALEEVSKYGVIRGEWLEEGVYEIKDMVEKPNQEDAPSNLAVIGRYILTPDIFEILSETKPGKNNEIQITDALRTQAKRKRIIAYQFKGKRYDCGSVEGYIEASNAYYKKRLLEHHHHHH	soluble
MIKKLPLFIIVCLLAISSQALAETELEIEGLEGPLLSNVEAYISGIPEEDYSVSLRFQARLQESITDALKALGYYQSTTTFVVEGDTSDRTLLVNIDAGQPVIIYVSDIVISGEAAADEDFINAVDNSGLNLGQVINHGRYESLKSTLQNLALRKGYFDGDFTTNRLEIAPGRHQAIVRIHYDSGKRYSFGETSIDGSQIEEKRVRSIIPFQAGDPYLASQVGELNQYLSNTEWFSSVYVEPDIDAVGKTYQLPMKVHLSPQVRNQLETSIGYATDVGARGKIRWKKPWLNPEGHSLDTALSISKPEQEATISYKIPLEQVLKDYYVVKYGLKNVDNNDTDSLESNLAFERHWVYDSGWHRTIYTRFLYEEFTQGVQDGTAWLVLPGISFSKSRSRGGTMPMWGDKKAFTIEATDQALTSDVKLLRLQAQGAIVRSIGENHRGVARADIGAIYTDDFYKLPPSIRFFAGGDNSIRGYGYEEVSPKDSEGYLTGGQYMATASLEYQYRVVGNWWVATFVDYGDAWLDTPDWKMGTGVGIRWASPVGPVRLDFAWGLDAEPGDEFKIHFTLGPEVLEHHHHHH	soluble
MIKLVFRYSPTKTVDGFNELAFGLGDGLPWGRVKKDLQNFKARTEGTIMIMGAKTFQSLPTLLPGRSHIVVCDLARDYPVTKDGDLAHFYITWEQYITYISGGEIQVSSPNAPFETMLDQNSKVSVIGGPALLYAALPYADEVVVSRIVKRHRVNSTVQLDASFLDDISKREMVETHWYKIDEVTTLTESVYK	soluble
MIKNILILSSNNTGHGHKSITESLLEQFSHYPDVNVHVIDGFTLAGNFGLRIGKLYGSVTRNAKELWKLVWELSLKKPSLLNDFTEVAIKDNFLKLICNIKPDLILSVHPNFNGSVLNILEDYNIKVPFVTLLADIVSITPLWADPRADYIICPSKESKFKCLEFGVSESKLIETGFPVRQKFLKHLEKNGENNTQNIKKYTGDRPLECLIMSGGEGSGNMSRIASILLKNFNCRVKIVTGRNRLLKRRLERTIGERFGDRVEIYGFTENIQDLMLSSDIAFTRGSPNVMMEAVACNVPLIITGNLPGQEEGNPAYMQKYNLGVVCKDVRKLRHTVNELLENNGEKLNRIKQSQKEFLNPNVAKEIVSFLLSIDKQEEPCFPEDLFSGDFPRFWELHKRISMSHNKKIILKRHKKIGTKQK	soluble
MILKPIGVVKSPFKTQNDAPRQGRFSDAVSEIAIFDEYADGLHKIENLRHIIVLYWMDKASRDKLRVVPPGETEERGVFTTRSPSRPNPIGLCVVEILEVERNRLKVRWLDALDGSPVIDIKKYSPEIDCVNQLEGQQP	not soluble
MILNIRDHYLPREYWKYISLHRGPIYGYKLEAYIGADNCIHYKEIPKNPDDTLRENETIYI	not soluble
MILNPQKLSVDFGNGITATEPIIPRRYTLTHSDITAKLFLNIGLTYAYNKMTTMRDEVLGEWVKKSQDYSYQVFLHVDGRLGPKTTAIRNKIFRRELPLALEAIRYGDKRFFNAHPYLDNAPITVFFISTNPNFNKIENWGTFSDYNIESYYRNLEHHHHHH	soluble
MILRYATNLKLAKELYQASKPKLQEDKGMIELFEHTFGLQKELVKYVGIAEATTAALYSASFINKNISRLASLSTIGILSVAAYKHFEAGQGKKGAQHALDLLGLATLSLLDTFSCNKKLEHHHHHH	not soluble
MILSSYNTIQSVFCCCCCCSVQKRQMRTQISLSTDEELPEKYTQHRRPWLSQLSNKKQSNTGRVQPSKRKPLPPLPPSEVAEEKIQVKALYDFLPREPCNLALRRAEEYLILEKYNPHWWKARDRLGNEGLIPSNYVTENKITNLEIYEWYHRNITRNQAEHLLRQESKEGAFIVRDSRHLGSYTISVFMGARRSTEAAIKHYQIKKNDSGQWYVAERHAFQSIPELIWYHQHNAAGLMTRLRYPVGLMGSCLPATAGFSYGKVCTHAEVK	soluble
MINAKVHVAVPTAFYADESLNISATLAHAQYLLDHQIESVMLCGSTGEQHSLDLDEKIALARAVDRAEWPQGAEIIFGVSAIRQSHAVRLAQVVAQCERIDAILVGFPPYIRPTQDQARRFVTAITQTAGKPAIIYNNPARTGFDASASTLAQLCMLPDVIGVKDPGGAPKLAEVSREIAPFRARYYAGGELDLHAKVAHGYTYLSSIVGNIAPEETVAWFNALRHGEEYESSSRLQELIDQLFAHHPIQFLKEKISTQEGINMGSCRLPLGPIAD	not soluble
